The results in this text go back to article PMC5959871, “Bacterial encapsulins as orthogonal compartments for mammalian cell engineering” (Nature Communications, 2018).

B1: Encapsulin cargo protein D, non-tagged, from the multi-gene construct BCDP2A (natural protein, Myxococcus xanthus, UniProt Q1D9P3 1-109, looked up)
chain: MAKNSNPSAFDRDFGYLMPFLDRVAAAASDLEDASARAELTRLMVEEKARWQRIQELLGGAGGRGAAAPTPAREAPAEAPRLARGSADELHEAAPFATGLTVGSLRGSR
notes: MxEncD, native cargo protein of Myxococcus xanthus encapsulin, expressed from a single reading frame with B and C separated by P2A peptides; P2A skipping probably leaves residues of the P2A peptide on the proteins; also called MxEncD; EncD
B2: Encapsulin cargo protein B, non-tagged, from the multi-gene construct BCDP2A (natural protein, Myxococcus xanthus, UniProt Q1D6H3 1-158, looked up)
chain: MAGPPDSDLDDVARIRLVLARELETINEYEAYARASSNPEVRAFFQHLAAEEKEHVSEAVHMLRMLDSGQNDHFAKPFVPGHFQAAEAPAPATVHVPTPDGPAFSVNGRNGRLPSEPPTSLPPQRLLYGLPAPPPAVESHPLTVGSLRRGGGGSGSGR
notes: MxEncB, ferritin-like native cargo protein of Myxococcus xanthus encapsulin, expressed from a single reading frame with C and D separated by P2A peptides; P2A skipping probably leaves residues of the P2A peptide on the proteins; also called MxEncB; EncB
B3: Encapsulin cargo protein C, non-tagged, from the multi-gene construct BCDP2A (natural protein, Myxococcus xanthus, UniProt Q1D3Y8 1-130, looked up)
chain: MPQTNPFHSLVPRKMTDTELARSIRLNIEAELDAINLYAAHIDATDNEDAKAILQHVMDEEREHAALFWELIARLDPEQAAHAKEAVEKYRLITSGASHEAVEAVGKEGAAPSPADVTPEKRLTVGSLRR
notes: MxEncC, ferritin-like native cargo protein of Myxococcus xanthus encapsulin, expressed from a single reading frame with B and D separated by P2A peptides; P2A skipping probably leaves residues of the P2A peptide on the proteins; also called MxEncC; EncC

The assay addresses T1, MxEncA^FLAG, encapsulin shell protein A from Myxococcus xanthus with C-terminal FLAG tag (Myxococcus xanthus, UniProt Q1D6H4 1-287).
T1 construct: MxEncA, encapsulin shell protein of Myxococcus xanthus, mammalian codon-optimized synthetic gene; A^FLAG printed as 32.9 kDa; Assembles into shells of 60 (T = 1) or 180 (T = 3) subunits; also called nanoshell; source: also purified by anti-FLAG beads and FLAG-peptide elution; not shown: FLAG, C-terminal, kept
Put plainly: native gel or EMSA; Blue Native PAGE (NativePAGE 3-12% Bis-Tris) of material eluted from the anti-FLAG Co-IP or the Strep-Tactin purification; Coomassie or silver stain. Conditions: both partners purified.
For the molecule B1, the binding result is listed as “binds”.

Regarding B2, the binding result is listed as “binds”.

With B3, the binding result is on record as “binds”.
